In the test the target is Atezolizumab. The test can be described thus: microscale thermophoresis instrument, ligand-induced fluorescence change; f-F0 held at 10 nM, the concentration axis is that of atezolizumab.

In the case of “peptide f-F0 (FITC-labeled parental Fc-III peptide F0, disulfide bond replaced by a thioether bond)”, the EC50 (read off the curve) amounted to 20 nM.

Source of the values: US20240024504A1, “SITE-SELECTIVE LYSINE ACETYLATION OF HUMAN IMMUNOGLOBULIN G AND IgG-RELATED PRODUCTS FOR IMMUNOTHERAPY” (The Chinese University of Hong Kong, priority 2022, published 2024).
